From doi:10.1101/2021.02.07.430161 (bioRxiv, 2021)
Like-named read-outs stand apart in the source and are kept apart here.

How the values were obtained:
PABPC1 RRM23 (98-293) = PABPC1 RRM23 (98-293) (UniProt P11940-1 98-293); assay: native gel or EMSA
PABPC1 (1-372) = PABPC1 (1-372) (UniProt P11940-1 1-372); assay: native gel or EMSA
[1] = molecular target: T1, Poly(A) binding protein cytoplasmic 1 (PABPC1), full-length recombinant, His-tagged (UniProt P11940-1 1-636); assay: SEC-MALS
[2] = molecular target: T1, Poly(A) binding protein cytoplasmic 1 …; assay: SEC-MALS; remark: listed apart in the source
[3] = molecular target: PABPC1 full-length (His);Paip2 (Paip2a) full-length (human?;human?, UniProt P11940;Q9BPZ3 1-636;1-127, |); assay: EMSA
Chain of PABPC1 full-length (His);Paip2 (Paip2a) full-length (P11940 whole entry, one chain of several): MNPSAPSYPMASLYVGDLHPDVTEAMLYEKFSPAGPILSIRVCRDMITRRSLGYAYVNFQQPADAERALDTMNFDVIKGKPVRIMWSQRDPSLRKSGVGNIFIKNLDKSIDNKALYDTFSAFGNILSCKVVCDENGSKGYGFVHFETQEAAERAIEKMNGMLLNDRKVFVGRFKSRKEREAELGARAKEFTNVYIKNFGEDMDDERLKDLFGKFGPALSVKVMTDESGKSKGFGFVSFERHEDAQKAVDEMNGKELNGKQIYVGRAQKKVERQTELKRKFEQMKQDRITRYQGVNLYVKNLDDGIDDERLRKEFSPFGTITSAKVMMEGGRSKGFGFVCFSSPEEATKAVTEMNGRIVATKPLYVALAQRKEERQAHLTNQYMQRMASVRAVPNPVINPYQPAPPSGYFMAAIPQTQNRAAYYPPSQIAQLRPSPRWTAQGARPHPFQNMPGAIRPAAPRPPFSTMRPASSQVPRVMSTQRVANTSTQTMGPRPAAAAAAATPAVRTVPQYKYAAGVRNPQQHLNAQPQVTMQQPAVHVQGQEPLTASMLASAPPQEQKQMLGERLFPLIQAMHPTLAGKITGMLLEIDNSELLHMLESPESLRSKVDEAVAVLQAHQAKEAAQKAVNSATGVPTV

T1 sequence (P11940 whole entry): as the sequence (P11940 whole entry, one chain of several) above
Chain of PABPC1 (1-372) (P11940 1-372): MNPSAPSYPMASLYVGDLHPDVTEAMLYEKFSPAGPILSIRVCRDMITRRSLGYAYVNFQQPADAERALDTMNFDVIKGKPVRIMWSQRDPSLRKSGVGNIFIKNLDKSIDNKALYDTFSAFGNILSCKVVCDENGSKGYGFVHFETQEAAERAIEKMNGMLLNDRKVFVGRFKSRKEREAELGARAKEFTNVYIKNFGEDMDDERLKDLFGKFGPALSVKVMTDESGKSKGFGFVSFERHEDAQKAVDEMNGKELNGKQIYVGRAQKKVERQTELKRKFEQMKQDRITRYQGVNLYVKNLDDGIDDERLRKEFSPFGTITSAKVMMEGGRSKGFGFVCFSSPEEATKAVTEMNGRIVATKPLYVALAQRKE
Chain of PABPC1 RRM23 (98-293) (P11940 98-293): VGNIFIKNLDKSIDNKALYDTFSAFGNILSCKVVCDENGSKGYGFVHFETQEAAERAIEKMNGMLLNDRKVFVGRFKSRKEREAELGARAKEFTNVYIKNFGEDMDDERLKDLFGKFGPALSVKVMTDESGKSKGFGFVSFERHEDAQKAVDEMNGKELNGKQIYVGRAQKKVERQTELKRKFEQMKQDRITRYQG

B1: Paip2 (22-75) (domain or fragment, UniProt Q9BPZ3 22-75, looked up)
chain: GHSHEDDNPFAEYMWMENEEEFNRQIEEELWEEEFIERCFQEMLEEEEEHEWFI
B1: binds (PABPC1 RRM23 (98-293)); binds (PABPC1 (1-372)).

B2: PABPC1-interacting protein 2 (Paip2), full-length recombinant (natural protein, UniProt Q9BPZ3 1-127, looked up)
chain: MKDPSRSSTSPSIINEDVIINGHSHEDDNPFAEYMWMENEEEFNRQIEEELWEEEFIERCFQEMLEEEEEHEWFIPARDLPQTMDQIQDQFNDLVISDGSSLEDLVVKSNLNPNAKEFVPGVKYGNI
In the case of B2, the “stoichiometry N” value [1] is reported as 2 Paip2 per PABPC1 and the “stoichiometry N” value [2] is reported as 1 Paip2 per PABPC1.

AAAAAAAAAAAAAAAAAAAAAAAAA (ssRNA) [r(A)25]: binds [3].
